Measurements reported in paper PMC3865061.

How the values were obtained:
[1] = target: T1, Influenza A virus matrix protein M1 (full-length), strain A/Puerto Rico/8/34 (H1N1) (Influenza A virus A/Puerto Rico/8/34 (H1N1)), P03485; assay: SAXS; conditions: remark: other sources report otherwise
T1 chain: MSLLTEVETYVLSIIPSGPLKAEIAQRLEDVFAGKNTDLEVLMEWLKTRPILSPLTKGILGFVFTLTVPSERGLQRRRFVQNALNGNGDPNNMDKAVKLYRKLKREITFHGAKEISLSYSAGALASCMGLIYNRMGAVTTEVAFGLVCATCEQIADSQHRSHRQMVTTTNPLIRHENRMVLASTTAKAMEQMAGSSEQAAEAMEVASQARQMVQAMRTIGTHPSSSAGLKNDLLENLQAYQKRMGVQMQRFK

[2] = target: T1, Influenza A virus matrix protein M1 …; assay: AUC; conditions: remark: other sources report otherwise

B1: Influenza A virus matrix protein M1 (full-length), strain A/Puerto Rico/8/34 (H1N1), P03485 1-252 (natural protein)
chain: T1 chain
Q: With B1 as the binder, how does the volume fraction of clusters (volume fraction) [1] read?
A: Its volume fraction of clusters (volume fraction) is 0.03.

Q: And the volume percent of large associates (volume percent) [2]?
A: Its volume percent of large associates (volume percent) is 2 to 3.
